Data as given in paper PMC6987182.

Tested on: Asp97
Assay: UV-vis
Details: 150 mM NaCl; 50 mM Tris-HCl; Dark/ground state, retinal-bound, detergent-solubilised purified protein

For “HSG119 rhodopsin (blue-light absorbing proteorhodopsin homologue) (uncultured marine bacterium (metagenome sample HSG070119-03, seawater near King Sejong Station, King George Island, Antarctica))”, the pKa was “around 5.8 and 8.0”.
